{
  "source": "paper PMC10931652",
  "about": "“Recombinant Rod Domain of Vimentin Reduces SARS-CoV-2 Viral Replication by Blocking Spike Protein–ACE2 Interactions” (International Journal of Molecular Sciences, 2024)",
  "target": "T1, recombinant spike S1S2 extracellular domain of SARS-CoV-2 (S1S2ECD-His) (SARS-CoV-2, UniProt P0DTC2 14-1213, IRDye 800CW NHS ester label (as the probe of the peptide array only))",
  "T1 construct": "also called SARS-CoV-2 spike protein; S1S2 protein",
  "assay": "BLI; S1S2ECD-His amine-coupled on AR2G sensors (10 µg/mL in 10 mM sodium acetate pH 4); rhRod in solution, 8 concentrations a run; Octet Red384; KD by non-linear regression of the steady-state response",
  "settings": "both partners purified",
  "data": [
    {"binder": "recombinant rod domain of vimentin (rhRod) (domain or fragment, IRDye 800CW NHS ester label (as the probe of the peptide array only), also called rhRod-1 to rhRod-7 (lots)) not shown", "values": [
      {"measurement": "Kd", "value": 163, "unit": "nM"}
    ]}
  ]
}
